Molecular target: biotinylated GST-importin α2 (UniProt P52293 1-529, biotinylated)
Test: AlphaScreen or HTRF; about 30 nM His6-PKC-θ and increasing concentrations of biotinylated GST-importins; in triplicate; three parameter sigmoidal curves fitted; quenched values in the hooking zone excluded
Details: both partners purified

Kd: 2.75 nM
B1: His6-PKC-θ (protein kinase C theta) (enzyme)
chain: MSPFLRIGLSNFDCGSCQSCQGEAVNPYCAVLVKEYVESENGQMYIQKKPTMYPPWDSTFDAHINKGRVMQIIVKGKNVDLISETTVELYSLAERCRKNNGKTEIWLELKPQGRMLMNARYFLEMSDTKDMNEFETEGFFALHQRRGAIKQAKVHHVKCHEFTATFFPQPTFCSVCHEFVWGLNKQGYQCRQCNAAIHKKCIDKVIAKCTGSAINSRETMFHKERFKIDMPHRFKVYNYKSPTFCEHCGTLLWGLARQGLKCDACGMNVHHRCQTKVANLCGINQKLMAEALAMIESTQQARCLRDTEQIFREGPVEIGLPCSIKNEARPPCLPTPGKREPQGISWESPLDEVDKMCHLPEPELNKERPSLQIKLKIEDFILHKMLGKGSFGKVFLAEFKKTNQFFAIKALKKDVVLMDDDVECTMVEKRVLSLAWEHPFLTHMFCTFQTKENLFFVMEYLNGGDLMYHIQSCHKFDLSRATFYAAEIILGLQFLHSKGIVYRDLKLDNILLDKDGHIKIADFGMCKENMLGDAKTNTFCGTPDYIAPEILLGQKYNHSVDWWSFGVLLYEMLIGQSPFHGQDEEELFHSIRMDNPFYPRWLEKEAKDLLVKLFVREPEKRLGVRGDIRQHPLFREINWEELERKEIDPPFRPKVKSPFDCSNFDKEFLNEKPRLSFADRALINSMDQNMFRNFSFMNPGMERLIS
notes: protein kinase C theta (PKC-θ); also called recombinant purified His6-PKC-θ; source: recombinant, purified

From publication PMC8946217, “Selective Targeting of Protein Kinase C (PKC)-θ Nuclear Translocation Reduces Mesenchymal Gene Signatures and Reinvigorates Dysfunctional CD8^+ T Cells in Immunotherapy-Resistant and Metastatic Cancers” (Cancers, 2022)
